# Assay results as given in paper PMC5122317.
# Target: iRFP (Rhodopseudomonas palustris)
# Assay: SEC
substance,measurement,value
iRFP,stoichiometry N,1.92 fold
